Source: IntAct's records for PubMed 20595257

B1: Phage shock protein B (Escherichia coli (strain K12)), P0AFM9 (parent)
chain: MSALFLAIPLTIFVLFVLPIWLWLHYSNRSGRSELSQSEQQRLAQLADEAKRMRERIQALESILDAEHPNWRDR
partner: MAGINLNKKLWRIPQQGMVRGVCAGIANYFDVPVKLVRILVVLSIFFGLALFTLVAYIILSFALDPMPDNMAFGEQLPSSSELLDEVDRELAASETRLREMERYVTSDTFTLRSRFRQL
B2: Aerobic respiration control sensor protein ArcB (Escherichia coli (strain K12)), P0AEC3 (parent)
chain: MKQIRLLAQYYVDLMMKLGLVRFSMLLALALVVLAIVVQMAVTMVLHGQVESIDVIRSIFFGLLITPWAVYFLSVVVEQLEESRQRLSRLVQKLEEMRERDLSLNVQLKDNIAQLNQEIAVREKAEAELQETFGQLKIEIKEREETQIQLEQQSSFLRSFLDASPDLVFYRNEDKEFSGCNRAMELLTGKSEKQLVHLKPADVYSPEAAAKVIETDEKVFRHNVSLTYEQWLDYPDGRKACFEIRKVPYYDRVGKRHGLMGFGRDITERKRYQDALERASRDKTTFISTISHELRTPLNGIVGLSRILLDTELTAEQEKYLKTIHVSAVTLGNIFNDIIDMDKMERRKVQLDNQPVDFTSFLADLENLSALQAQQKGLRFNLEPTLPLPHQVITDGTRLRQILWNLISNAVKFTQQGQVTVRVRYDEGDMLHFEVEDSGIGIPQDELDKIFAMYYQVKDSHGGKPATGTGIGLAVSRRLAKNMGGDITVTSEQGKGSTFTLTIHAPSVAEEVDDAFDEDDMPLPALNVLLVEDIELNVIVARSVLEKLGNSVDVAMTGKAALEMFKPGEYDLVLLDIQLPDMTGLDISRELTKRYPREDLPPLVALTANVLKDKQEYLNAGMDDVLSKPLSVPALTAMIKKFWDTQDDEESTVTTEENSKSEALLDIPMLEQYLELVGPKLITDGLAVFEKMMPGYVSVLESNLTAQDKKGIVEEGHKIKGAAGSVGLRHLQQLGQQIQSPDLPAWEDNVGEWIEEMKEEWRHDVEVLKAWVAKATKK
B3: Phage shock protein C (Escherichia coli (strain K12)), P0AFN2 (parent)
chain: B1 partner
B4: Phage shock protein C (Escherichia coli (strain K12)), P0AFN2 (parent)
chain: B1 partner
partner: B1 chain
B5: Aerobic respiration control sensor protein ArcB (Escherichia coli (strain K12)), P0AEC3 (parent)
chain: B2 chain
partner: B1 partner
B6: Aerobic respiration control sensor protein ArcB (Escherichia coli (strain K12)), P0AEC3 (parent)
chain: B2 chain
partner: B1 chain

Variants of: B1
Details: with pspc_ecoli pspC
With MSALFLAIPATIFVAFVAPIWLWLHYSNRSGRSELSQSEQQRLAQLADEAKRMRERIQALESILDAEHPNWRDR [L10A;L15A;L18A] the “effect of a mutation on the interaction” value was “with no effect”.

Variants of: B2
Details: with pspa_ecoli pspA
In the case of L87A;L90A;L94A;M97A, the “effect of a mutation on the interaction” value is reported as “with no effect”.

Variants of: B3
Details: with pspa_ecoli pspA
In the case of MAGINLNKKLWRIPQQGMVRGVCAGIANYFDVPVKLVRILVVLSIFFGLALFTLVAYIILSFALDPMPDNMAFAEQLPSSSELLDEVDRELAASETRLREMERYVTSDTFTLRSRFRQL [G74A], the “effect of a mutation on the interaction” value is reported as “with no effect”. In the case of MAGINLNKKLWRIPQQGMVRGVCAGIANYFDVPVKLVRILVVLSIFFALALFTLVAYIILSFALDPMPDNMAFGEQLPSSSELLDEVDRELAASETRLREMERYVTSDTFTLRSRFRQL [G48A], the “effect of a mutation on the interaction” value is reported as “disrupting interaction strength”. In the case of MAGINLNKKLWRIPQQGMVRGVCAGIANYFDVPVKLVRILVVLSIFFGLALFTLVAYIILSFALDPMPDNMAFGEQLPSSSELLDEVDREAAASETRAREMERYVTSDTFTLRSRFRQL [L91A;L98A], the “effect of a mutation on the interaction” value is reported as “disrupting interaction strength”.

Variants of: B4
Details: with pspb_ecoli pspB
With MAGINLNKKLWRIPQQGMVRGVCAGIANYFDVPVKLVRILVVLSIFFGLALFTLVAYIILSFALDPMPDNMAFAEQLPSSSELLDEVDRELAASETRLREMERYVTSDTFTLRSRFRQL [G74A] the “effect of a mutation on the interaction” value was “with no effect”. With MAGINLNKKLWRIPQQGMVRGVCAGIANYFDVPVKLVRILVVLSIFFALALFTLVAYIILSFALDPMPDNMAFGEQLPSSSELLDEVDRELAASETRLREMERYVTSDTFTLRSRFRQL [G48A] the “effect of a mutation on the interaction” value was “with no effect”.

Variants of: B5
Details: with pspc_ecoli pspC
With L87A;L90A;L94A;M97A the “effect of a mutation on the interaction” value was “with no effect”.

Variants of: B6
Details: with pspb_ecoli pspB
L87A;L90A;L94A;M97A was tested, and the “effect of a mutation on the interaction” value was “with no effect”.
